In patent publication US9290794B2, “Mutant protease biosensors with enhanced detection characteristics” (PROMEGA CORPORATION, priority 2010, dated 2016):

Key:
caspase-3 [1] = experiment: CBS expressed in E. coli, HisLink purification fractions, caspase-3 cleavage reaction; type: biochemical
Experimental: The CBS variant 1A5 was cloned into a bacterial expression vector (pFNA:HQ(5×):CBS:HT(7); SEQ ID NOs:73 and 74) containing HaloTag® (C-terminal to the CBS) and a 5×HQ tag (N-terminal to CBS). The fusion protein was expressed in E. coli as follows: E. coli (KRX) was transformed with the vector. A starter culture (50 mL, LB Broth) was inoculated from a single colony and grown for 17-22 hrs at 37° C. with shaking (275 rpm). The starter culture was diluted (1:50) into induction media (500 mL, LB Broth with 0.05% glucose and 0.02% rhamnose) and growth was continued for another 17-22 hrs at 25° C. with shaking (275 rpm). The culture was divided into two 250 mL aliquots, and cells were collected by centrifugation (5,000×g for 20 min at 4° C.). One cell pellet was re-suspended in Lysis Buffer (25 mL, 50 mM HEPES (pH 7.5), 0.2× FastBreak, 2 mM DTT, 0.05% CHAPS, 50 mM Arginine, 50 mM Glutamic acid, 0.2 mg/mL Lysozyme, 10 U/mL RQ1 DNase, and Protease Inhibitors (Beckton/Dickenson Cat. No. 544779)) and incubated on ice for 30 min. After incubation, the sample was sonicated (Misonix Sonicator-3000, 4 mM total, 5 sec on, 5 sec rest, Power Setting 5). The crude lysate was clarified by centrifugation (20,000×g for 20 min at 4° C.), and the supernatant (cleared lysate) was used as the CBS source. For the caspase-3 cleavage reaction, 20 μl of the cleared lysate was mixed with 20 μL E. coli lysate expressing caspase-3 (Example XII) and incubated at room temperature for 30 min. 60 μL HEPES pH 7.5 was added, followed by the addition of 100 μL Bright-Glo Assay Reagent. Luminescence was detected as previously described above (FIG. 20).
Briefly, 25 mL of cleared lysate was made 0.5 M in NaCl (final concentration) and applied to 2 mL of settled HisLink resin that had been equilibrated with Binding Buffer (100 mM HEPES (pH7.5), 10 mM Imidazole, 500 mM NaCl). The resin was washed with 12 mL of Binding Buffer followed by washing with Elution Buffer (100 mM HEPES (pH 7.5), 1000 mM Imidazole). 1.75 mL fractions were collected.
For SDS-PAGE gel analysis, samples were labeled with CA-TAM and analyzed as described previously (FIG. 21A). For caspase-3 cleavage reaction, 20 μl of each sample was mixed with 20 μL E. coli lysate expressing Caspase-3 (Example XII) and incubated at room temperature for 30 min. 60 μL HEPES pH 7.5 was added, followed by the addition of 100 μL Bright-Glo Assay Reagent. Luminescence was detected as previously described above (Table 10 and FIG. 21B).

caspase-3 [2] = experiment: Purified HQ:CBS:HT from E. coli immobilized on solid support, activation by Caspase-3; type: biochemical
[3] = HisLink purification sample HSS
[4] = HisLink purification sample NSM
[5] = HisLink purification sample WASH

B1: HQ:CBS:HT: 5×HQ tag:CBS (variant 1A5):HaloTag fusion protein expressed in E. coli (SEQ ID NOs:73 and 74) (protein)
chain: MKHQHQHQAIAMPGSTGKIVPLHAVKVVDPTTGKILGPNEPGELYFKGPMIMKGYYNNEEATKAIIDNDGWLRSGDIAYYDNDGHFYIVDRLKSLIKYKGYQVAPAEIEGILLQHPYIVDAGVTGIPDEAAGELPAAGVVVQTGKYLNEQIVQDYVASQVSIAKWLRGGVKFLDEIPKGSTGKIDRKVLRQMLEKHTNGSDEVDGSLKNILYGPEPFYPLEDGTAGEQMFDALSRYAAIPGCIALTNAHTKENVLYEEFLKLSCRLAESFKKYGLKQNDTIAVCSENSLQFFLPVIASLYLGIIVAPVNDKYIERELIHSLGIVKPRIVFCSKNTFQKVLNVKSKLKSIETIIILDLNEDLGGYQCLNNFISQNSDSNLDVKKFKPYSFNRDDQVASIMFSSGTTGLPKGVMLTHKNIVARFSIAKDPTFGNAINPTSAILTVIPFHHGFGMMTTLGYFTCGFRVVLMHTFEEKLFLQSLQDYKVESTLLVPTLMAFLAKSALVEKYDLSHLKEIASGGAPLSKEIGEMVKKRFKLNFVRQGYGLTETTSAVLITPKGVSLEPTTEDLYFQSDNDGSEIGTGFPFDPHYVEVLGERMHYVDVGPRDGTPVLFLHGNPTSSYVWRNIIPHVAPTHRCIAPDLIGMGKSDKPDLGYFFDDHVRFMDAFIEALGLEEVVLVIHDWGSALGFHWAKRNPERVKGIAFMEFIRPIPTWDEWPEFARETFQAFRTTDVGRKLIIDQNVFIEGTLPMGVVRPLTEVEMDHYREPFLNPVDREPLWRFPNELPIAGEPANIVALVEEYMDWLHQSPVPKLLFWGTPGVLIPPAEAARLAKSLPNCKAVDIGPGLNLLQEDNPDLIGSEIARWLSTLEISG
For B1, which BASAL luminescence (caspase-3 [1]; HisLink elution fraction E1) is on record?
Its BASAL luminescence is 4,221.

What about the INDUCED luminescence (caspase-3 [1]; HisLink elution fraction E1) of the same molecule?
The INDUCED luminescence was 2,951,899.

And the RESPONSE (caspase-3 [1]; HisLink elution fraction E1)?
Its RESPONSE is 699.

And the BASAL luminescence (caspase-3 [1]; HisLink elution fraction E2)?
Its BASAL luminescence is 193,268.

And the INDUCED luminescence (caspase-3 [1]; HisLink elution fraction E2)?
The INDUCED luminescence was 40,913,496.

And the RESPONSE (caspase-3 [1]; HisLink elution fraction E2)?
Its RESPONSE is 212.

And the BASAL luminescence (caspase-3 [1]; HisLink elution fraction E3)?
Its BASAL luminescence is 18,454.

What about the INDUCED luminescence (caspase-3 [1]; HisLink elution fraction E3) of the same molecule?
Its INDUCED luminescence is 3,287,059.

And the RESPONSE (caspase-3 [1]; HisLink elution fraction E3)?
Its RESPONSE is 178.

What about the BASAL luminescence (caspase-3 [1]; HisLink elution fraction E4) of the same molecule?
Its BASAL luminescence is 1,130.

What about the INDUCED luminescence (caspase-3 [1]; HisLink elution fraction E4) of the same molecule?
The INDUCED luminescence was 215,580.

What about the RESPONSE (caspase-3 [1]; HisLink elution fraction E4) of the same molecule?
The RESPONSE was 191.

And the BASAL luminescence (caspase-3 [1]; HisLink elution fraction E5)?
Its BASAL luminescence is 270.

And the INDUCED luminescence (caspase-3 [1]; HisLink elution fraction E5)?
Its INDUCED luminescence is 48,068.

And the RESPONSE (caspase-3 [1]; HisLink elution fraction E5)?
The RESPONSE was 178.

What about the BASAL luminescence (caspase-3 [1]; [3]) of the same molecule?
The BASAL luminescence was 301,304.

And the INDUCED luminescence (caspase-3 [1]; [3])?
The INDUCED luminescence was 12,875,742.

What about the RESPONSE (caspase-3 [1]; [3]) of the same molecule?
Its RESPONSE is 43.

What about the BASAL luminescence (caspase-3 [1]; [4]) of the same molecule?
The BASAL luminescence was 176,259.

And the INDUCED luminescence (caspase-3 [1]; [4])?
The INDUCED luminescence was 5,822,003.

What about the RESPONSE (caspase-3 [1]; [4]) of the same molecule?
Its RESPONSE is 33.

What about the BASAL luminescence (caspase-3 [1]; [5]) of the same molecule?
Its BASAL luminescence is 7,734.

What about the INDUCED luminescence (caspase-3 [1]; [5]) of the same molecule?
The INDUCED luminescence was 3,706,541.

And the RESPONSE (caspase-3 [1]; [5])?
Its RESPONSE is 479.

What about the BASAL luminescence (caspase-3 [2]; column HaloLink-Plate) of the same molecule?
The BASAL luminescence was 6,880.

And the INDUCED luminescence (caspase-3 [2]; column HaloLink-Plate)?
Its INDUCED luminescence is 661,597.

What about the RESPONSE (caspase-3 [2]; column HaloLink-Plate) of the same molecule?
The RESPONSE was 96.

What about the BASAL luminescence (caspase-3 [2]; column HisLink) of the same molecule?
The BASAL luminescence was 193,268.

What about the INDUCED luminescence (caspase-3 [2]; column HisLink) of the same molecule?
The INDUCED luminescence was 40,913,496.

What about the RESPONSE (caspase-3 [2]; column HisLink) of the same molecule?
The RESPONSE was 212.
